Measured values from US11931423B2, “Glucose oxidase-nanoparticle bioconjugates for cancer treatment” (UNIVERSITY OF PITTSBURGH—OF THE COMMONWEALTH SYSTEM OF …, priority 2017, dated 2024).

B1: glucose oxidase (protein, UniProt P13006 17-605, looked up)
Glucose oxidase: LPHYIRSNGIEASLLTDPKDVSGRTVDYIIAGGGLTGLTTAARLTENPNISVLVIESGSYESDRGPIIEDLNAYGDIFGSSVDHAYETVELATNNQTALIRSGNGLGGSTLVNGGTWTRPHKAQVDSWETVFGNEGWNWDNVAAYSLQAERARAPNAKQIAAGHYFNASCHGVNGTVHAGPRDTGDDYSPIVKALMSAVEDRGVPTKKDFGCGDPHGVSMFPNTLHEDQVRSDAAREWLLPNYQRPNLQVLTGQYVGKVLLSQNGTTPRAVGVEFGTHKGNTHNVYAKHEVLLAAGSAVSPTILEYSGIGMKSILEPLGIDTVVDLPVGLNLQDQTTATVRSRITSAGAGQGQAAWFATFNETFGDYSEKAHELLNTKLEQWAEEAVARGGFHNTTALLIQYENYRDWIVNHNVAYSELFLDTAGVASFDVWDLLPFTRGYVHILDKDPYLHHFAYDPQYFLNELDLLGQAAATQLARNISNSGAMQTYFAGETIPGDNLAYDADLSAWTEYIPYHFRPNYHGVGTCSMMPKEMGGVVDNAARVYGVQGLRVIDGSIPPTQMSSHVMTVFYAMALKISDAILEDYASMQ
B2: SPION-GOx-Cy7: GOx-SPION tagged with a fluorescent dye (Cy7 moiety) (conjugate, UniProt P13006 17-605, looked up)
Glucose oxidase: LPHYIRSNGIEASLLTDPKDVSGRTVDYIIAGGGLTGLTTAARLTENPNISVLVIESGSYESDRGPIIEDLNAYGDIFGSSVDHAYETVELATNNQTALIRSGNGLGGSTLVNGGTWTRPHKAQVDSWETVFGNEGWNWDNVAAYSLQAERARAPNAKQIAAGHYFNASCHGVNGTVHAGPRDTGDDYSPIVKALMSAVEDRGVPTKKDFGCGDPHGVSMFPNTLHEDQVRSDAAREWLLPNYQRPNLQVLTGQYVGKVLLSQNGTTPRAVGVEFGTHKGNTHNVYAKHEVLLAAGSAVSPTILEYSGIGMKSILEPLGIDTVVDLPVGLNLQDQTTATVRSRITSAGAGQGQAAWFATFNETFGDYSEKAHELLNTKLEQWAEEAVARGGFHNTTALLIQYENYRDWIVNHNVAYSELFLDTAGVASFDVWDLLPFTRGYVHILDKDPYLHHFAYDPQYFLNELDLLGQAAATQLARNISNSGAMQTYFAGETIPGDNLAYDADLSAWTEYIPYHFRPNYHGVGTCSMMPKEMGGVVDNAARVYGVQGLRVIDGSIPPTQMSSHVMTVFYAMALKISDAILEDYASMQ
modifications: SPION conjugate, Cy7 dye
B3: GOx-SPION: glucose oxidase conjugated to superparamagnetic iron oxide nanoparticle via Tz/TCO bioorthogonal ligation (conjugate, UniProt P13006 17-605, looked up)
Glucose oxidase: LPHYIRSNGIEASLLTDPKDVSGRTVDYIIAGGGLTGLTTAARLTENPNISVLVIESGSYESDRGPIIEDLNAYGDIFGSSVDHAYETVELATNNQTALIRSGNGLGGSTLVNGGTWTRPHKAQVDSWETVFGNEGWNWDNVAAYSLQAERARAPNAKQIAAGHYFNASCHGVNGTVHAGPRDTGDDYSPIVKALMSAVEDRGVPTKKDFGCGDPHGVSMFPNTLHEDQVRSDAAREWLLPNYQRPNLQVLTGQYVGKVLLSQNGTTPRAVGVEFGTHKGNTHNVYAKHEVLLAAGSAVSPTILEYSGIGMKSILEPLGIDTVVDLPVGLNLQDQTTATVRSRITSAGAGQGQAAWFATFNETFGDYSEKAHELLNTKLEQWAEEAVARGGFHNTTALLIQYENYRDWIVNHNVAYSELFLDTAGVASFDVWDLLPFTRGYVHILDKDPYLHHFAYDPQYFLNELDLLGQAAATQLARNISNSGAMQTYFAGETIPGDNLAYDADLSAWTEYIPYHFRPNYHGVGTCSMMPKEMGGVVDNAARVYGVQGLRVIDGSIPPTQMSSHVMTVFYAMALKISDAILEDYASMQ
modifications: superparamagnetic iron oxide nanoparticle

Columns and labels:
ROS = test: TMB-based ROS activity assay; format: biochemical; details: in the presence of glucose, 37° C., 2 h, pH 4
Description: Production of ROS by the GOx-SPION bioconjugate was characterized by using a color agent 3,3′,5,5′-tetramethylbenzidine (TMB). TMB is known to be able to produce a blue color in the presence of ROS, which can be quantified by measuring the absorption at the wavelength of 650 nm. As a comparison, the levels of ROS produced by GOx and SPION alone, a mixture of GOx and SPION without conjugation, as well as the mAb-GOx-SPION bioconjugate were characterized.
The TMB-based ROS activity assay was carried out by using the following process. 20 μL SPION (5.0 mg/mL), GOx (1.0 mg/mL), a mixture of GOx (0.5 mg/mL) and SPION (2.5 mg/mL) without conjugation, GOx-SPION (5.0 mg/mL), and mAb-GOx-SPION (5.0 mg/mL) were each added into 380 μL of reaction buffer (0.1 M NaAc, pH 4, 50 μg TMB), followed by addition of either 100 μL of 100 mM glucose or 100 μL of DiH2O. After the mixtures were incubated at 37° C. for 2 h, the color change was detected with a Hitachi UV-Vis spectrophotometer.

4T1 cells = test: In vivo therapeutic efficacy in 4T1 tumor-bearing mice; details: for tumor growth (relative tumor volume): 4T1 tumors, single tail vein injection, 21 days, SPION-GOx 5 mg/kg, SPION 5 mg/kg, GOx 8.5 nmol/kg
Procedure: 4T1 cells (2×10^5 cell/mouse) were implanted subcutaneously into the right shoulders of female balb/c mice (˜20 g). In vivo therapeutic efficacy experiments were performed when the tumor reached 6˜8 mm in average diameter (10 days after implant). 3-5 mice were randomly assigned to 4 groups, to which the following agents were administered via tail vein injection: Group A were administered with a mixture of unconjugated SPION and GOx at the dosage of 5 mg/kg and 8.5 nmol/kg respectively; Group B were administered with GOx at the dosage of 8.5 nmol/kg; Group C were administered with 200 μL saline as control; and Group D were administered with a single dose of 5 mg/mL SPION-GOx in saline at a dosage of 5 mg/kg. All the administration was made at about the same time of the day. The size and size distribution of SPION-GOx bioconjugates were determined using DLS before injection to ensure the conjugation was complete and no precipitation was formed in the suspension. The SPION-GOx PBS solution to be used on animal study was tested using a TMB assay to verify the effective generation of ROS. The weight and health conditions of the mice were monitored daily. The tumor sizes were measured and recorded every other day in the first 12 days, and then every 3 days until 21 days post injection, at which time point the tumors were harvested. The volumes of the tumors were calculated by the following equation: V=L×W^2/2.

[1] = test system: 4T1 breast cancer xenografts; test: Biodistribution in mice with 4T1 breast cancer xenografts; format: in vivo; details: 150 μg, mice with 4T1 xenografts, 1 day after injection
Procedure: To visualize the biodistribution of GOx-SPION within mouse models, GOx-SPION was tagged with a fluorescent dye (Cy7 moiety). 150 μg of the resulting SPION-GOx-Cy7 bioconjugate was administered to 5 mice having 4T1 breast cancer xenografts. The biodistribution of the bioconjugates was imaged at 1 day, 3 days, 4 days, 5 days, 6 days, and 7 days after injection (see FIGS. 12A-12B).

| Molecule | production of ROS (peak height at 650 nm, TMB) (ROS) | tumor growth (relative tumor volume) (4T1 cells) | biodistribution (uptake) [1] | side effects (weight loss or death) (4T1 cells; 4T1 tumor mice, 5 mg/kg tail vein) | body weight loss during treatment (4T1 cells; mouse, in vivo, 5 mg/kg) |
| --- | --- | --- | --- | --- | --- |
| B1 | neither GOx nor SPION alone is able to produce ROS | inhibited tumor growth to a much lesser extent | – | – | – |
| B2 | – | – | initial uptake of the bioconjugates was to tumor cells | – | – |
| B3 | synergistic activity between conjugated GOx and SPION | significant slowdown of tumor growth | – | no severe side effects | did not experience any significant body weight loss |
